# Reference: the nanobody polyreactivity screen of Harvey et al. (2022)
# Assay: yeast display, Sf9 membrane polyspecificity reagent, FACS + sequencing; frameworks hold sequencing errors
# Summary of the method: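 Galactose induction of a Saccharomyces cerevisiae BJ5465 synthetic nanobody display library ran 36–48 hours. The cells were then stained for 1 hour at 4 °C with 10% biotinylated, detergent-solubilized Sf9 membrane reagent, pulled down on streptavidin microbeads and FACS-sorted into low and high (top ~1%) gates on expression and reagent-binding fluorescence. Labels for polyreactivity follow the gate of origin.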
row,Sequence,polyreactivity (PSR sort gate)
1,QVQLVESGGGLVQAGGSLRLSCAASGSIFYIYAMGWYRKAPGKERELVASIDSGDSTNYADSVKGRFTISRDNAKNTVYLQMNSLKPEDTAVYYCNADTYSEITYYLYIGMDYWGQGTQVTVSS,low polyreactivity
2,QVQLVESGGGLVQAGGSLRLSCAASGSIFYIYAMGWYRPAPGKEREFVAAITWTGGSTYYADSVKGRFTISRDNAKNTVYLQMNSLKPEDTAVYYCARATVGAWRKMYSWGQGTQVTVSS,high polyreactivity
3,QVQLVESGGGLVQAGGSLRLSCAASGSIFYIYAMGWYRQAPGKEREFVAAISWIGGSTYYADSVKGRFTISRDNAKNTVYLQMNSLKPEDTAVYYCAAETFTDYDYWGQGTQVTVSS,high polyreactivity
4,QVQLVESGGGLVQAGGSLRLSCAASGSIFYIYAMGWYRQAPGKERELVAGIRNGGSTKYADSVKGRFTISRDNAKNTVYLQMNSLKPEDTAVYYCAARYYRPYTSSWAHNYRLDDWGQGSQVTVSS,high polyreactivity
5,QVQLVESGGGLVQAGGSLRLSCAASGSIFYIYVMGWYRQAPGKERELVAAISSGGTTNYADSVKGRFTISRDNAKNTVYLQMNSLIPEDTAVYYCAADVLIARYPGYSYEYWGQGTQVTVSS,low polyreactivity
6,QVQLVESGGGLVQAGGSLRLSCAASGSIFYKNAMGWYRQAPGKERELVAAISYSGGSTYYADSVKGRFTISRDNAKNTVYLQMNSLKPEDTAVYYCAAKGGAWGQGTQVTVSS,high polyreactivity
7,QVQLVESGGGLVQAGGSLRLSCAASGSIFYLNAMGWYRPAPGKERELVAAIRWSGGSTRYADSVKGRFTISRDNAKITVYLQLNSLKPEDTAVYSCAADTYVYTLGRYYYWGQGTQVTVSS,high polyreactivity
8,QVQLVESGGGLVQAGGSLRLSCAASGSIFYLNAMGWYRQAPGKERELDAAIRWSGGSTRYADSVKGRFTISRDNAKNTVYLQMNSLKPEDTAVYYCAKYNPVLVYHWWYYYWGQGTQVTVSS,high polyreactivity
9,QVQLVESGGGLVQAGGSLRLSCAASGSIFYLYAMGWYRPAPGKERELVAAISRSGASTYYADSVKGRFTISRDNAKNTVYLQMNSLKPEDTAVYYCAAYKIWGRVRYDYWGQGTQVTVSS,low polyreactivity
10,QVQLVESGGGLVQAGGSLRLSCAASGSIFYLYAMGWYRQAPGKESELVAAITSGDSTTYADSVKWRFTISRDYAKNTVYLQMNSLKPEDTAVYYCAADWPGLVGYHNSAENDYWGQGTQVTVSS,low polyreactivity
11,QVQLVESGGGLVQAGGSLRLSCAASGSIFYNAMGWYRQAPGKERELVAAISYRGGRTYYADSVKGRFTISRDNAKNTVYLQMNSLKPEDTAVYYCAADSTVGRYPYDYWGPGTQVTVSS,high polyreactivity
12,QVQLVESGGGLVQAGGSLRLSCAASGSIFYNNAMGWYRQAPGKERELVATISDGGGSTYYADSVKGRFTISRDNAKNTVYLQMNSLKPEDTAVYYCAAPYYWGQGTQVTVSS,low polyreactivity
13,QVQLVESGGGLVQAGGSLRLSCAASGSIFYNNVMGWYRQAPGKERELVAVISGGGSTNYADSVKGRFTISRDNAKNNVYLHMNSLKREDTAVYYCAARGRYSYGDRYEYWGQATQVTVSS,low polyreactivity
14,QVQLVESGGGLVQAGGSLRLSCAASGSIFYNTMGWYRQAPGKERELVAAITSGGSTYYADSVKGRFTISRDNAKNTVYLQMNSLKPEDTAVYYCAAESYYCGYQWLYFEYGYWGQGTQVTVSS,low polyreactivity
15,QVQLVESGGGLVQAGGSLRLSCAASGSIFYPNAMGWYRQAPGKERELVAAITVGGGRTYYADSVKGRFTISRDNAKNTVYLQMNSLKPEDTAVYYCAAQEIVRYPRFDKYDYWGQGTQVTVSS,low polyreactivity
16,QVQLVESGGGLVQAGGSLRLSCAASGSIFYPNAMGWYRQAPGKERELVATIRRRGGSTYYADSVKGRFTISRDNAKNTVYLQMHSLKPEDTAVDYCAVGSPTPYRALDLYDYWGQGTQVTVSS,high polyreactivity
17,QVQLVESGGGLVQAGGSLRLSCAASGSIFYPNAMRWYRQAPGKQRELVAVITGGATTYYADSVKGRFTISRDYAKNTVYLQRNSLNPEDTAVDYCAADSAENVYRGYDWGQGTQVTVSS,low polyreactivity
18,QVQLVESGGGLVQAGGSLRLSCAASGSIFYPNVMGWDRQAPGKERELVAAIRTSGGSTYYADSVKGRFTISRDNAKNTVYLQMNSLKPEDTAVYYCAADYIYVKYEYWGQGTQVTVSS,high polyreactivity
19,QVQLVESGGGLVQAGGSLRLSCAASGSIFYPNVMGWYRQAPGKERELVATISWSGGNTYYADSVKGRFTISRDNAKNTVYLQMNSLKPEDTAVYYCAADQWSQDYDYWGQGTQVTVSS,low polyreactivity
20,QVQLVESGGGLVQAGGSLRLSCAASGSIFYPYAMGWYRQANGKERELDAAITWRGGRTYYADSVKGRFTISRDNAKNTVYLQMNSLKPEDTAVYYCAAGWLTRSYEYDYWGQGTQVTVSS,high polyreactivity
21,QVQLVESGGGLVQAGGSLRLSCAASGSIFYPYAMGWYRQAPGKERELVAAINWGGTITYYADSVKGRFTISRDNAKNTVYLQMNSLKPEDTAVYYCAAKYKGYRYYYWGQGTQVTVSS,high polyreactivity
22,QVQLVESGGGLVQAGGSLRLSCAASGSIFYPYAMGWYRQAPGKERELVAAIRFSGGRTYYADSVKGRFTISRDNAKNTVYLQMNSLKPEDTAVYYCAAEYYGIYSPYDYWGQGTQVTVSS,high polyreactivity
